Reference: US20230272045A1

Key:
[1] = biological target: human plasma fibronectin (human) (UniProt P02751); assay: ELISA
human tenascin C (human) = human tenascin C (human) (UniProt P24821); assay: ELISA
[2] = biological target: human vitronectin (human) (UniProt P04004); assay: ELISA
fibrin matrix = fibrin matrix (UniProt P02671); assay: cell-based or functional assay
fibrin matrix, sequence (P02671 other isoform, or with tags, fused parts or gaps, chain 1 of 3): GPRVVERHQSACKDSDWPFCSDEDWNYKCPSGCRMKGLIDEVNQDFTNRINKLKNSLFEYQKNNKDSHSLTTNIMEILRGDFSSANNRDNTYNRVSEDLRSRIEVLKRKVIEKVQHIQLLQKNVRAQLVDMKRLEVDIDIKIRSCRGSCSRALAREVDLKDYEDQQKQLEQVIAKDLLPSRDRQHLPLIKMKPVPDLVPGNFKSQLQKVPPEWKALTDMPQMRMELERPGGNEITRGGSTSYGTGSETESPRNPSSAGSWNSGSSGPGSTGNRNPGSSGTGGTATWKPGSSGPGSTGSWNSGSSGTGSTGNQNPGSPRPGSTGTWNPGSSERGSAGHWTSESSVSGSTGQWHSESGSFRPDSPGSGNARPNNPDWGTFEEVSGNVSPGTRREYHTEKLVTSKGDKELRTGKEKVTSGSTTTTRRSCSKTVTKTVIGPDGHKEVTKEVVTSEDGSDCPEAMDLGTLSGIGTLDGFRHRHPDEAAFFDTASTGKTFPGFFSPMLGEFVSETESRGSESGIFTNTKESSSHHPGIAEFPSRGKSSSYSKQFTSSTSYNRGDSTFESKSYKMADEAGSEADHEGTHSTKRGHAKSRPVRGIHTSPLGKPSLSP
fibrin matrix, sequence (P02675 45-491, chain 2 of 3, further chain): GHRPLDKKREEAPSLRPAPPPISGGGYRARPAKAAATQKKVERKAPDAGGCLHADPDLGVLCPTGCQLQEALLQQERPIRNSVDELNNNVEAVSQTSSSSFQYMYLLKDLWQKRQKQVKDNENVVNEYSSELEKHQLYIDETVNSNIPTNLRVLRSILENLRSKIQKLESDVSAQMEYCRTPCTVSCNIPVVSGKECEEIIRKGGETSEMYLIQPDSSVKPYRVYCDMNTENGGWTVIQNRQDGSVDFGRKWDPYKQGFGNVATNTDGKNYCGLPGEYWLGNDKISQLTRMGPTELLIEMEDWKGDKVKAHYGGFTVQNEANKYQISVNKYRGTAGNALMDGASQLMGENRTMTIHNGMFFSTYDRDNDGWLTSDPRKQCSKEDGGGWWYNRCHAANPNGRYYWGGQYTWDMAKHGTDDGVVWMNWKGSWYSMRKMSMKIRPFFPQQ
fibrin matrix, sequence (P02679 other isoform, or with tags, fused parts or gaps, chain 3 of 3, further chain): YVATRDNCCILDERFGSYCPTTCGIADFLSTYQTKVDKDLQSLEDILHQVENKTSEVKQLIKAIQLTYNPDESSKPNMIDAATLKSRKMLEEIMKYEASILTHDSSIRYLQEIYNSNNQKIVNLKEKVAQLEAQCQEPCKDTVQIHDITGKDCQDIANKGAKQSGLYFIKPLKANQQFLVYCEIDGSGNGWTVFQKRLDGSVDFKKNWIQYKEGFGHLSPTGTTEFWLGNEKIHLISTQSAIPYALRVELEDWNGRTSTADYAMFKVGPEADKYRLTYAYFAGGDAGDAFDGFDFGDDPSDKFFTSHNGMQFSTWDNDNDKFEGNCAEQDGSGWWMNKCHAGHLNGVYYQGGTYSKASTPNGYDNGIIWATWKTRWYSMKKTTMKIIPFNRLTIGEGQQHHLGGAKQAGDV

human tenascin C (human), sequence (P24821 23-2201): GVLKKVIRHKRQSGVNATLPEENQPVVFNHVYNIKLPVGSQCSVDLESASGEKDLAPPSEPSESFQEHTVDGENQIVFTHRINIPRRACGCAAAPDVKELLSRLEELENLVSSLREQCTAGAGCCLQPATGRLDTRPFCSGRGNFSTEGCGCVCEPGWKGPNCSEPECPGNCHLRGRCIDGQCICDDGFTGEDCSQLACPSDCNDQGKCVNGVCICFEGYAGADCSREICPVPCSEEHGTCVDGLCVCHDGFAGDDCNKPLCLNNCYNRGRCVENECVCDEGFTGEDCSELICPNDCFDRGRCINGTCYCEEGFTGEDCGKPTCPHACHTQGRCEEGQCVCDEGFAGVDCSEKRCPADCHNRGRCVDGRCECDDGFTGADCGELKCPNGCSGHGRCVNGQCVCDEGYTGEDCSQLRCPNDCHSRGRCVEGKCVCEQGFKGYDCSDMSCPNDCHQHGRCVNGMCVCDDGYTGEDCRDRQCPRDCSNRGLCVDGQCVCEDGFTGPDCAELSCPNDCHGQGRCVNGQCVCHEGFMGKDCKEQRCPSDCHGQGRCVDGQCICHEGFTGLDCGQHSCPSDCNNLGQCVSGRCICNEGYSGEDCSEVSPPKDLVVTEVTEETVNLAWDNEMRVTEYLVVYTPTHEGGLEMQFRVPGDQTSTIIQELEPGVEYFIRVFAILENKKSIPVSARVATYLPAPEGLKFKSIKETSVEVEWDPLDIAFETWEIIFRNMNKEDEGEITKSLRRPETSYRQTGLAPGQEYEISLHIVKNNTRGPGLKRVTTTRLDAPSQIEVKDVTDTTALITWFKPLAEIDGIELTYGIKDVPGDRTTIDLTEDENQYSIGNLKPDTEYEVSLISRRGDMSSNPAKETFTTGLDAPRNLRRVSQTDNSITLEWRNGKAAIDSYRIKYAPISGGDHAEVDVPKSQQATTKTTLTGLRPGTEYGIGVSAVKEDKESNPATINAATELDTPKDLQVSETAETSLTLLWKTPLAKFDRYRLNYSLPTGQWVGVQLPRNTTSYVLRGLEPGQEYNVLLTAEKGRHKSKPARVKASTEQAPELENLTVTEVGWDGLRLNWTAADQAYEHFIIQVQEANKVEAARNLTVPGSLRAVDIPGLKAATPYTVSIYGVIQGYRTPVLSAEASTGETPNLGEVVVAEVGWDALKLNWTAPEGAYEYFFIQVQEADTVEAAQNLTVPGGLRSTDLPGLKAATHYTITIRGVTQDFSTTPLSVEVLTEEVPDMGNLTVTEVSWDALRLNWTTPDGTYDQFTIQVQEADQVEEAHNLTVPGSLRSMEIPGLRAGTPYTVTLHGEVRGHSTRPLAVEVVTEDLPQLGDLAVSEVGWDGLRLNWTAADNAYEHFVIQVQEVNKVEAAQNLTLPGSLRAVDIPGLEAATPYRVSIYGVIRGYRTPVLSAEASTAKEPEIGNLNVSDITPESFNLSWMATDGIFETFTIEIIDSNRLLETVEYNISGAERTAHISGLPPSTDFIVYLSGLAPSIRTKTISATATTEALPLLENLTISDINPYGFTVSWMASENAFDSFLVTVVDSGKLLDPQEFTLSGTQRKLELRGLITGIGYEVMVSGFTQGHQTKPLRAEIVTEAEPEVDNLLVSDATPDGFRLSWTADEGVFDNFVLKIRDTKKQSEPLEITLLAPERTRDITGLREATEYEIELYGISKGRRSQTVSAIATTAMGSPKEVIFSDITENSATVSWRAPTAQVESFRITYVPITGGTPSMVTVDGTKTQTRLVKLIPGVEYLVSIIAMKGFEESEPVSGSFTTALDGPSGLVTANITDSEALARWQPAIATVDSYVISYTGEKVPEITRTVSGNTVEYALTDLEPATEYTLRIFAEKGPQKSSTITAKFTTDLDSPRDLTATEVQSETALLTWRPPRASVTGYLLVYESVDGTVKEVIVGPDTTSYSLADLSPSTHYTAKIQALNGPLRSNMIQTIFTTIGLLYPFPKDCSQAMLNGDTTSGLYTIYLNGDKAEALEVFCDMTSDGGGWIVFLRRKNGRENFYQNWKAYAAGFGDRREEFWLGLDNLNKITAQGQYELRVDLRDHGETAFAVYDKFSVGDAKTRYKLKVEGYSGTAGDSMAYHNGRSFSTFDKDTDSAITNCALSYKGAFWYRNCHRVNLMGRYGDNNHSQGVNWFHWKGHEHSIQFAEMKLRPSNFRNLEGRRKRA
human vitronectin (human), sequence (P04004 20-478): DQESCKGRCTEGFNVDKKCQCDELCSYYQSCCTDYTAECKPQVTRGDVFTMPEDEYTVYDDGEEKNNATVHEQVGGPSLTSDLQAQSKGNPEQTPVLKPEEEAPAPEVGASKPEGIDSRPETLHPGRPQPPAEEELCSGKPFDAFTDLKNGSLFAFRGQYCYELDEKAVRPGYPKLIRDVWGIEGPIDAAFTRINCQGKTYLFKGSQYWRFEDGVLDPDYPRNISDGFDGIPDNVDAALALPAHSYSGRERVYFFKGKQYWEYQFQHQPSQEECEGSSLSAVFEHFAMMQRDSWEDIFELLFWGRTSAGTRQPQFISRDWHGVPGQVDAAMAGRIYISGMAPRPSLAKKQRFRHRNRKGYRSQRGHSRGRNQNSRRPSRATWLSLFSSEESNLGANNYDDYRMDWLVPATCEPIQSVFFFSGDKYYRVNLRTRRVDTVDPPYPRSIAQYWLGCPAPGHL

Kd [1] [nM] | Kd (human tenascin C (human)) [nM] | Kd [2] [nM] | release from a fibrin matrix (fraction of the protein dose released) (fibrin matrix) [%] | Substance
7.9 | 18.1 | 1.9 |  | AREG126-138/PDGF-BB (from UniProt P31240 80-190)
 |  |  | > 60 | PIGF-1 (from UniProt P49763 19-149) (ligand)
